Reference: paper PMC10570377, “DARPins detect the formation of hetero-tetramers of p63 and p73 in epithelial tissues and in squamous cell carcinoma” (Cell Death & Disease, 2023)
Numbering of substitutions follows the chain as printed. Names may count otherwise.

B1: p73 oligomerization domain (OD), homo-tetramer (domain or fragment)
chain: DEDTYYLQVRGRENFEILMKLKESLELMELVPQPLVDSYRQQQQLLQR
notes: p73 oligomerization domain (OD), wild type; 15N-labelled on lysine for NMR; also called p73 OD; p73 homo-OD; source: E. coli, purified; not shown: His10, N-terminal, cleaved
B2: p73 oligomerization domain E363K (domain or fragment, UniProt O15350 351-398, looked up)
chain: B1 chain with E13K
notes: p73 oligomerization domain (OD), amino acids 351-398, E363K; The p73 chain of m3; also called p73 (amino acids 351–398, E363K); p73 OD E363K; source: E. coli BL21(DE3) Rosetta, purified; not shown: His10, N-terminal, cleaved
B3: p63 oligomerization domain (OD), homo-tetramer (domain or fragment)
chain: DDELLYLPVRGRETYEMLLKIKESLELMQYLPQHTIETYRQQQQQQHQHLLQKQTSIQS
notes: p63 oligomerization domain (OD), wild type; also called p63 OD; p63 homo-OD; source: E. coli, purified; not shown: His10, N-terminal, cleaved

How the values were obtained:
[1] = molecular target: the molecule itself; experiment: crystal structure; complexes of OD hetero-tetramer and DARPin mixed 1:2, isolated by SEC, sitting drop at 20 °C
[2] = molecular target: B3; experiment: NMR titration; [15N,1H] BEST-TROSY spectra at 25 °C; equimolar mixture of unlabelled p63 OD and 15N-Lys-labelled p73 OD, DARPin added at one ratio (2.4:1); 20 mM K2HPO4 pH 7.8, 100 mM KCl, 0.5 mM EDTA; details: both partners purified

Row | binding result [2] | Binder | binding result [1]
1 | binds | B1 | binds
2 |  | B2 | binds
3 |  | B3 | binds
